Numbering of substitutions follows the chain as printed. Names may count otherwise.
What was measured:
[1] = biological target: T1, Transcription termination factor ρ K115E (E. coli) (E. coli, UniProt P0AG30 1-419, K115E); test: SEC; analytical SEC, Superdex S200 PC 3.2 column, 5 µM ρ and 90 µM Rof/variants mixed in reaction buffer (20 mM Tris-HCl pH 8.0, 120 mM KOAc, 5 mM Mg(OAc)2, 2 mM DTT), 32 °C 10 min, run at 4 °C; fractions analysed by SDS-PAGE; settings: both partners purified
T1 construct: Transcription termination factor Rho, E. coli, with K115E

[2] = biological target: T2, Transcription termination factor ρ F89S (E. coli) (E. coli, UniProt P0AG30 1-419, F89S); test: as above; settings: both partners purified
T2 construct: Transcription termination factor Rho, E. coli, with F89S

[3] = biological target: Transcription termination factor ρ, wild type (E. coli) (E. coli, UniProt P0AG30 1-419); test: cell-based or functional assay
[4] = biological target: T3, Rho (transcription termination factor) (Escherichia coli, UniProt P0AG30 1-419); test: fluorescence anisotropy; 5 mM Mg2+; no Rof; PBS binding; Anisotropy: 20 mM Na-HEPES pH 7.5, 150 mM KCl, 5% glycerol, 5 mM MgCl2, 0.5 mM TCEP; 5 µM FAM-dC15 or 2 µM FAM-rU12; temperature not stated; settings: protein: recombinant; chain copies: 6; label: 5'-FAM; single strand
[5] = biological target: Rho F89S (Escherichia coli, UniProt P0AG30 1-419, F89S); test: analytical SEC; Anisotropy: 20 mM Na-HEPES pH 7.5, 150 mM KCl, 5% glycerol, 5 mM MgCl2, 0.5 mM TCEP; 5 µM FAM-dC15 or 2 µM FAM-rU12; temperature not stated; settings: protein: recombinant; chain copies: 6; boxB hairpin
[6] = biological target: Rho R88E (Escherichia coli, UniProt P0AG30 1-419, R88E); test: as above; settings: protein: recombinant; chain copies: 6; boxB hairpin
[7] = biological target: T3, Rho (transcription termination factor); test: cryo-EM; ADP-BeF3; closed ring, 2.9 Å; Anisotropy: 20 mM Na-HEPES pH 7.5, 150 mM KCl, 5% glycerol, 5 mM MgCl2, 0.5 mM TCEP; 5 µM FAM-dC15 or 2 µM FAM-rU12; temperature not stated; settings: protein: recombinant; chain copies: 6; boxB hairpin
[8] = biological target: T3, Rho (transcription termination factor); test: fluorescence anisotropy; 2 mM ADP-BeF3, 10 µM unlabeled dC15 blocking PBS; SBS binding / ring closure; Anisotropy: 20 mM Na-HEPES pH 7.5, 150 mM KCl, 5% glycerol, 5 mM MgCl2, 0.5 mM TCEP; 5 µM FAM-dC15 or 2 µM FAM-rU12; temperature not stated; settings: protein: recombinant; chain copies: 6; label: 5'-FAM; single strand

B1: Rof, wild type, tag-less (E. coli) (natural protein)
chain: MNDTYQPINCDDYDNLELACQHHLMLTLELKDGEKLQAKASDLVSRKNVEYLVVEAAGETRELRLDKITSFSHPEIGTVVVSES
notes: Rof (YaeO), E. coli; codon-optimised rof gene; the C-terminal residue is printed as S84 (84-residue form); the residue numbers used (I8 to S84) fit the 84-residue form; also called Rof^wt; ecRof; source: E. coli RIL (BL21), purified (Ni2+-NTA, TEV protease, Superdex 75)
binding result [1]: binds
binding result [2]: binds

B2: Rof D14A (E. coli) (natural protein)
chain: B1 chain with D14A
transcripts terminated by ρ in vitro (λ tR1 template; 25 nM ρ, 5 µM Rof variant); 87% in the absence of Rof [3]: 86%

B3: Rof E17A (E. coli) (natural protein)
chain: B1 chain with E17A
transcripts terminated by ρ in vitro (λ tR1 template; 25 nM ρ, 5 µM Rof variant); 87% in the absence of Rof [3]: 25%

B4: Rof Y13A (E. coli) (natural protein)
chain: B1 chain with Y13A
transcripts terminated by ρ in vitro (λ tR1 template; 25 nM ρ, 5 µM Rof variant); 87% in the absence of Rof [3]: 90%

CCCCCCCCCCCCCCC (ssDNA) [dC15]
Kd [4]: 1000 nM

B5: rut RNA (lambda tR1) (structured_RNA)
RNA: GGGAUAACCCCGCUCUUACACAUUCCAGCCCUGAAAAAGGGCAUCAAAUUAAACCACACCUAUGGUGUAUGUCAAAUUAAACCACA
binding result [5]: binds
binding result [6]: no binding
binding result [7]: binds

UUUUUUUUUUUU (ssRNA) [rU12]
binding result [8]: binds

From publication PMC11018626, “Sm-like protein Rof inhibits transcription termination factor ρ by binding site obstruction and conformational insulation” (Nature Communications, 2023)
